Changes are numbered by the printed parent chain.
Columns and labels:
[1] = target: T1, Polypeptide 4 (part of Neisseria gonorrhoeae L7/L12 lacking amino acid residues 102 to 123) (Neisseria gonorrhoeae, UniProt A1KRG5 1-101); test: ELISA, polypeptide solid-phased at 2 ug/mL, HRP-labeled anti-IgG
T1 construct: Purified as a tagged fusion protein
T1 sequence: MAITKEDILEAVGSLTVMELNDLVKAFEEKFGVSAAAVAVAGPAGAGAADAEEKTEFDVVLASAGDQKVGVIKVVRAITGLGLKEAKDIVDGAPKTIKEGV

[2] = target: T2, Polypeptide 5 (all of the L7/L12 amino acid sequence of Neisseria meningitidis) (Neisseria meningitidis, UniProt A1KRG5 1-123); test: as above
T2 construct: Differs from Neisseria gonorrhoeae L7/L12 only at residue 115 (glutamic acid instead of alanine); Purified as a tagged fusion protein
T2 sequence: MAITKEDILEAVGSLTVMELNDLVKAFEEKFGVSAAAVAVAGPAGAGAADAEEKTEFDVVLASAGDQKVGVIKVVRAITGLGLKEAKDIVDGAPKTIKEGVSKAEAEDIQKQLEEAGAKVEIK

[3] = target: T3, Ribosomal protein L7/L12 of Neisseria meningitidis (in extracted sample solution of the bacteria) (Neisseria meningitidis, UniProt A1KRG5 1-123); test: sandwich ELISA, capture NG3, HRP-labelled NG1, N. meningitidis extract
T3 construct: also called Neisseria meningitidis L7/L12
T3 sequence: T2 sequence

[4] = target: T4, Polypeptide 1 (all of the amino acid sequence of ribosomal protein L7/L12 of Neisseria gonorrhoeae) (Neisseria gonorrhoeae, UniProt B4RQW1 1-123); test: ELISA, polypeptide solid-phased at 2 ug/mL, antibody 100 ng/ml; + = absorbance 450 nm 0.1 or greater
T4 construct: Expressed in E. coli and purified as a fusion protein through a vector-derived tag
T4 sequence: T2 sequence with E115A

[5] = target: T5, Polypeptide 2 (part of Neisseria gonorrhoeae L7/L12 lacking amino acid residues 1 to 14) (Neisseria gonorrhoeae, UniProt B4RQW1 15-123); test: as above
T5 construct: Purified as a tagged fusion protein

[6] = target: T6, Polypeptide 3 (part of Neisseria gonorrhoeae L7/L12 lacking amino acid residues 1 to 63) (Neisseria gonorrhoeae, UniProt B4RQW1 64-123); test: as above
T6 construct: Purified as a tagged fusion protein
T6 sequence: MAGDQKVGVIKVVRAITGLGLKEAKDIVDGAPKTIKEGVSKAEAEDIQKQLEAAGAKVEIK

[7] = target: T7, Ribosomal protein L7/L12 of Neisseria gonorrhoeae (in extracted sample solution of the bacteria) (Neisseria gonorrhoeae, UniProt B4RQW1 1-123); test: sandwich ELISA, primary (capture) NG1, HRP-labelled secondary NG3, N. gonorrhoeae extract 1e6 cfu/mL; Absorbance difference A 1.0 or greater
T7 construct: also called Neisseria gonorrhoeae L7/L12; Neisseria gonorrhoeae-derived antigen
T7 sequence: T2 sequence with E115A

B1: Antibody NG1 (antibody, V domains shown)
VH: EVQLQQSGAELVKPGASVKLSCTASGFNIKDTYIYWVKQRPEQGLEWIGRIDPANGHTKCDPKFQGKATITSDTSSNTAYLQLNSLTSEDTAVYYCSKGYFHYWGQGTTLTVSS
VL: DIQMTQSPSSLSASLGERVSLTCRASQEISGYLSWLQQKPDGTIKRLIYAASTLDSGVPKRFSGSRSGSDYSLTISSLESEDFADYYCQQYDSYPWTFGGGTKLEIK
notes: Mouse hybridoma monoclonal antibody raised against polypeptide 1; detected with an anti-IgG antibody; HRP-labelled or gold-colloid-labelled when used as detection antibody; also called Antibody species A
[1]
  binding result: no binding
[2]
  binding result: no binding
[3]
  binding result: no binding
[4]
  binding result: binds
[5]
  binding result: binds
[6]
  binding result: binds
[7]
  binding result: binds

— US20250237651A1 (ASAHI KASEI, published 2025)
